# Columns and labels:
# [1] = biological target: AMMO1, human gH/gL-specific neutralizing antibody (recombinant IgG1) (human); experiment: SPR
# AMMO1 (human) = experiment: SPR
# Chain of AMMO1 (human) (heavy, as listed by the source, chain 1 of 2): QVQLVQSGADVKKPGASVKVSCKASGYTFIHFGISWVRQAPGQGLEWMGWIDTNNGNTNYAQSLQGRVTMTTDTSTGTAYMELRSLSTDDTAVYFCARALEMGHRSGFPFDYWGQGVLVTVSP
# Chain of AMMO1 (human) (light, as listed by the source, chain 2 of 2): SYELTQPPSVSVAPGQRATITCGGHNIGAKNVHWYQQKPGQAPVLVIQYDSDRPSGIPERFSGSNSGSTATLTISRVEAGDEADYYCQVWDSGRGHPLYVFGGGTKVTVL
# Chain of AMMO1, human gH/gL-specific neutralizing antibody (recombinant IgG1) (human) (heavy, as listed by the source, chain 1 of 2): as the sequence (heavy, as listed by the source, chain 1 of 2) above
# Chain of AMMO1, human gH/gL-specific neutralizing antibody (recombinant IgG1) (human) (light, as listed by the source, chain 2 of 2): as the sequence (light, as listed by the source, chain 2 of 2) above
Substance,Kd [1] [nM],koff (AMMO1 (human)) [s⁻¹]
EBV gH/gL single chain with N310A in gH (from UniProt P03231;P03212) (complex),0.19,–
gH N310A/gL (from UniProt P03231;P03212) (complex),–,9.6e-05

# Source: article PMC8595662
